Assay in all cases: coupled spectrophotometric assay
Holding throughout (format): biochemical, Aquifex aeolicus

Substrate in series [1]: Nc1ncnc2c1ncn2[C@@H]1O[C@H](COP(=O)(O)OP(=O)(O)O)[C@@H](O)[C@H]1O
The following applies: Mg-ADP/ADP.

Substrate in series [2]: Nc1ncnc2c1ncn2[C@@H]1O[C@H](COP(=O)(O)OP(=O)(O)OP(=O)(O)O)[C@@H](O)[C@H]1O
Substrate in series [3]: Nc1ncnc2c1ncn2[C@@H]1O[C@H](COP(=O)(O)O)[C@@H](O)[C@H]1O

Consider one protein from paper PMC4770092, “Subnanometre enzyme mechanics probed by single-molecule force spectroscopy” (Nature Communications, 2016).

B1: AdK 42-144 (Aquifex aeolicus VF5; INS144C/INS42C) (protein)
chain: MILVFLGPPGAGKGTQAKRLAKEKGFVHISTGDILREAVQKGCTPLGKKAKEYMERGELVPDDLIIALIEEVFPKHGNVIFDGFPRTVKQAEALDEMLEKKGLKVDHVLLFEVPDEVVIERLSGRRINPETGEVYHVKYNPPPPGCVKVIQREDDKPEVIKKRLEVYREQTAPLIEYYKKKGILRIIDASKPVEEVYRQVLEVIGDGN
notes: full length, Cys inserted between 42/43 and 144/145; N-terminal spacer …, C-terminal spacer and His6 kept; synthetic gene in pET11a, E. coli BL21(DE3); DNA handles on Cys in trap assay
What is called Km is the substrate concentration at which the rate is half of its maximum. B1: the figures for the Km in series [1], in series [2] and in series [3] were 360 ± 80 µM, 41 ± 11 µM and 10 µM, respectively.
